The values below come from publication PMC8844045, “Dynamic FMR1 granule phase switch instructed by m6A modification contributes to maternal RNA decay”.

For series [1], the target named is T1, FMR1 (MBP fusion) (UniProt Q9NFU0 1-684). Nature of the series: EMSA; EMSA: 10 mM HEPES pH 7.4, 50 mM KCl, 1 mM DTT (printed DDT), 1 mM EDTA, 0.05% Triton X-100, 5% glycerol, 10 ng/ul salmon DNA, 25 C, then 0.2% glutaraldehyde; SPR: 20 mM HEPES pH 7.4, 150 mM KCl, 1.5 mM MgCl2, 0.1% NP40, 25 C; pull-down: 10 mM Tris-HCl pH 7.5, 150 mM KCl, 1.5 mM MgCl2, 0.1% NP-40, 0.5 mM DTT, 4 C. As to conditions: protein: recombinant; label: biotin-16-UTP. (A gel shift assay detects complexes by their altered migration in electrophoresis.)

Series [2] addresses T1, FMR1 (MBP fusion). The series is described as follows: SPR; EMSA: 10 mM HEPES pH 7.4, 50 mM KCl, 1 mM DTT (printed DDT), 1 mM EDTA, 0.05% Triton X-100, 5% glycerol, 10 ng/ul salmon DNA, 25 C, then 0.2% glutaraldehyde; SPR: 20 mM HEPES pH 7.4, 150 mM KCl, 1.5 mM MgCl2, 0.1% NP40, 25 C; pull-down: 10 mM Tris-HCl pH 7.5, 150 mM KCl, 1.5 mM MgCl2, 0.1% NP-40, 0.5 mM DTT, 4 C. The following applies: protein: recombinant; label: biotin-16-UTP. (Surface plasmon resonance follows binding to a sensor surface in real time, without labels.)

T1 sequence (Q9NFU0 whole entry, the tested form may be a part): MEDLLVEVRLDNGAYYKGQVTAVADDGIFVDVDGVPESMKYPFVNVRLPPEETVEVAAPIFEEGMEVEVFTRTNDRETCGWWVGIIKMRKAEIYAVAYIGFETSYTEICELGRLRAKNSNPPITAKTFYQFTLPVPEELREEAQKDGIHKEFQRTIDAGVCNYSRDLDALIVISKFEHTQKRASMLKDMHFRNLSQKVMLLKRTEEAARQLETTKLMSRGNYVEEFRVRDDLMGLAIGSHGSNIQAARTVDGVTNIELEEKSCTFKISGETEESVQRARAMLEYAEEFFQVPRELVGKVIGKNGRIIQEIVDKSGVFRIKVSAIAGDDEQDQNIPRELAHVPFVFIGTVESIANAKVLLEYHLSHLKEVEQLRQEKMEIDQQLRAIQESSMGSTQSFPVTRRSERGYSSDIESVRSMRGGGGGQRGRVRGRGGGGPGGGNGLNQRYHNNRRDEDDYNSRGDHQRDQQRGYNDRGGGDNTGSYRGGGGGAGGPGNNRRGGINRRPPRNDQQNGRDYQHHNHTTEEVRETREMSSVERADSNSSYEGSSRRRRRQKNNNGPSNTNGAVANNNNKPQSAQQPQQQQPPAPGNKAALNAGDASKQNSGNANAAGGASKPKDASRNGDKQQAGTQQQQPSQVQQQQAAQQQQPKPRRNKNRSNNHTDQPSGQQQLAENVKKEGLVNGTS

B1: AGACU (9x), m6A (ssRNA)
RNA: GGGAGACUAGACUAGACUGAGACUAGACUAGACUGAGACUAGACUAGACUGUAC
modifications: all A = m6A (m6ATP)
As for B1, the binding result with FMR1 (MBP fusion) [1] was “binds”.

B2: mixed GGACU/AGACU/GAACU probe, m6A (ssRNA)
RNA: GGGGACUAGACUGAACUGGGACUAGACUGAACUGGGACUAGACUGAACUGUAC
modifications: all A = m6A (m6ATP)
Usually Kd stands for the constant that tells how readily two partners part at equilibrium. As to B2, the Kd with FMR1 (MBP fusion) [2] worked out at 80.7 nM.

B3: mixed GGACU/AGACU/GAACU probe, unmodified (ssRNA)
RNA: GGGGACUAGACUGAACUGGGACUAGACUGAACUGGGACUAGACUGAACUGUAC
Regarding B3, the Kd with FMR1 (MBP fusion) [2] was 3600 nM.
